The values below come from publication PMC3797246 (Structure (London, England : 1993), 2013).

Data set [1] deals with the molecule itself. In words: AUC.
Data set [2] deals with the molecule itself. Nature of the data set: co-IP.
In data set [3] the target is T1, SARAH domain of human RASSF5 (RASSF5^SARAH, residues 366-413) (human, UniProt Q8WWW0 366-413).
T1 chain (looked up): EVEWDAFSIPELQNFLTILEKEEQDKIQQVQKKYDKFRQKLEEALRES
Nature of the data set: SEC. (SEC sorts molecules by how far they enter the pores of the column.)

Data set [4] deals with the molecule itself. In words: SEC.

In general, stoichiometry N refers to a count of units in the complex or per binding partner.

B1: catalytically inactive mutant of the human Mst2 kinase domain (Mst2^KD/D146N) (domain or fragment, UniProt Q13188 16-313, looked up)
chain: EDSLTKQPEEVFDVLEKLGEGSYGSVFKAIHKESGQVVAIKQVPVESDLQEIIKEISIMQQCDSPYVVKYYGSYFKNTDLWIVMEYCGAGSVSDIIRLRNKTLIEDEIATILKSTLKGLEYLHFMRKIHRNIKAGNILLNTEGHAKLADFGVAGQLTDTMAKRNTVIGTPFWMAPEVIQEIGYNCVADIWSLGITSIEMAEGKPPYADIHPMRAIFMIPTNPPPTFRKPELWSDDFTDFVKKCLVKNPEQRATATQLLQHPFIKNAKPVSILRDLITEAMEIKAKRHEEQQRELEEEE
With B1, the “stoichiometry N” value in data set [1] came to 2.

B2: Mst2 D456A, full-length, in vitro translated (enzyme, human, UniProt Q13188 1-491, looked up)
chain: MEQPPAPKSKLKKLSEDSLTKQPEEVFDVLEKLGEGSYGSVFKAIHKESGQVVAIKQVPVESDLQEIIKEISIMQQCDSPYVVKYYGSYFKNTDLWIVMEYCGAGSVSDIIRLRNKTLIEDEIATILKSTLKGLEYLHFMRKIHRDIKAGNILLNTEGHAKLADFGVAGQLTDTMAKRNTVIGTPFWMAPEVIQEIGYNCVADIWSLGITSIEMAEGKPPYADIHPMRAIFMIPTNPPPTFRKPELWSDDFTDFVKKCLVKNPEQRATATQLLQHPFIKNAKPVSILRDLITEAMEIKAKRHEEQQRELEEEEENSDEDELDSHTMVKTSVESVGTMRATSTMSEGAQTMIEHNSTMLESDLGTMVINSEDEEEEDGTMKRNATSPQVQRPSFMDYFDKQDFKNKSHENCNQNMHEPFPMSKNVFPDNWKVPQDGDFDFLKNLSLEELQMRLKALAPMMEREIEELRQRYTAKRQPILDAMDAKKRRQQNF
modifications: 35S-methionine label
For B2, in data set [2], the “binding compared to wild-type Mst2” value is ≥ 30%.

B3: Mst2 L445A, full-length, in vitro translated (enzyme, human, UniProt Q13188 1-491, looked up)
chain: MEQPPAPKSKLKKLSEDSLTKQPEEVFDVLEKLGEGSYGSVFKAIHKESGQVVAIKQVPVESDLQEIIKEISIMQQCDSPYVVKYYGSYFKNTDLWIVMEYCGAGSVSDIIRLRNKTLIEDEIATILKSTLKGLEYLHFMRKIHRDIKAGNILLNTEGHAKLADFGVAGQLTDTMAKRNTVIGTPFWMAPEVIQEIGYNCVADIWSLGITSIEMAEGKPPYADIHPMRAIFMIPTNPPPTFRKPELWSDDFTDFVKKCLVKNPEQRATATQLLQHPFIKNAKPVSILRDLITEAMEIKAKRHEEQQRELEEEEENSDEDELDSHTMVKTSVESVGTMRATSTMSEGAQTMIEHNSTMLESDLGTMVINSEDEEEEDGTMKRNATSPQVQRPSFMDYFDKQDFKNKSHENCNQNMHEPFPMSKNVFPDNWKVPQDGDFDFLKNLSAEELQMRLKALDPMMEREIEELRQRYTAKRQPILDAMDAKKRRQQNF
modifications: 35S-methionine label
Take B3: the “binding compared to wild-type Mst2” value in data set [2] was ≥ 30%.

B4: Mst2 R474A, full-length, in vitro translated (enzyme, human, UniProt Q13188 1-491, looked up)
chain: MEQPPAPKSKLKKLSEDSLTKQPEEVFDVLEKLGEGSYGSVFKAIHKESGQVVAIKQVPVESDLQEIIKEISIMQQCDSPYVVKYYGSYFKNTDLWIVMEYCGAGSVSDIIRLRNKTLIEDEIATILKSTLKGLEYLHFMRKIHRDIKAGNILLNTEGHAKLADFGVAGQLTDTMAKRNTVIGTPFWMAPEVIQEIGYNCVADIWSLGITSIEMAEGKPPYADIHPMRAIFMIPTNPPPTFRKPELWSDDFTDFVKKCLVKNPEQRATATQLLQHPFIKNAKPVSILRDLITEAMEIKAKRHEEQQRELEEEEENSDEDELDSHTMVKTSVESVGTMRATSTMSEGAQTMIEHNSTMLESDLGTMVINSEDEEEEDGTMKRNATSPQVQRPSFMDYFDKQDFKNKSHENCNQNMHEPFPMSKNVFPDNWKVPQDGDFDFLKNLSLEELQMRLKALDPMMEREIEELRQRYTAKAQPILDAMDAKKRRQQNF
modifications: 35S-methionine label
On to B4, for which the “binding compared to wild-type Mst2” value in data set [2] is ≥ 30%.

B5: Mst2 R469A, full-length, in vitro translated (enzyme, human, UniProt Q13188 1-491, looked up)
chain: MEQPPAPKSKLKKLSEDSLTKQPEEVFDVLEKLGEGSYGSVFKAIHKESGQVVAIKQVPVESDLQEIIKEISIMQQCDSPYVVKYYGSYFKNTDLWIVMEYCGAGSVSDIIRLRNKTLIEDEIATILKSTLKGLEYLHFMRKIHRDIKAGNILLNTEGHAKLADFGVAGQLTDTMAKRNTVIGTPFWMAPEVIQEIGYNCVADIWSLGITSIEMAEGKPPYADIHPMRAIFMIPTNPPPTFRKPELWSDDFTDFVKKCLVKNPEQRATATQLLQHPFIKNAKPVSILRDLITEAMEIKAKRHEEQQRELEEEEENSDEDELDSHTMVKTSVESVGTMRATSTMSEGAQTMIEHNSTMLESDLGTMVINSEDEEEEDGTMKRNATSPQVQRPSFMDYFDKQDFKNKSHENCNQNMHEPFPMSKNVFPDNWKVPQDGDFDFLKNLSLEELQMRLKALDPMMEREIEELRQAYTAKRQPILDAMDAKKRRQQNF
modifications: 35S-methionine label
On to B5, for which the “binding compared to wild-type Mst2” value in data set [2] is ≥ 30%.

B6: Mst2 K473A, full-length, in vitro translated (enzyme, human, UniProt Q13188 1-491, looked up)
chain: MEQPPAPKSKLKKLSEDSLTKQPEEVFDVLEKLGEGSYGSVFKAIHKESGQVVAIKQVPVESDLQEIIKEISIMQQCDSPYVVKYYGSYFKNTDLWIVMEYCGAGSVSDIIRLRNKTLIEDEIATILKSTLKGLEYLHFMRKIHRDIKAGNILLNTEGHAKLADFGVAGQLTDTMAKRNTVIGTPFWMAPEVIQEIGYNCVADIWSLGITSIEMAEGKPPYADIHPMRAIFMIPTNPPPTFRKPELWSDDFTDFVKKCLVKNPEQRATATQLLQHPFIKNAKPVSILRDLITEAMEIKAKRHEEQQRELEEEEENSDEDELDSHTMVKTSVESVGTMRATSTMSEGAQTMIEHNSTMLESDLGTMVINSEDEEEEDGTMKRNATSPQVQRPSFMDYFDKQDFKNKSHENCNQNMHEPFPMSKNVFPDNWKVPQDGDFDFLKNLSLEELQMRLKALDPMMEREIEELRQRYTAARQPILDAMDAKKRRQQNF
modifications: 35S-methionine label
Consider B6, for which the “binding compared to wild-type Mst2” value in data set [2] was ≥ 30%.

B7: Mst2 R467A, full-length, in vitro translated (enzyme, human, UniProt Q13188 1-491, looked up)
chain: MEQPPAPKSKLKKLSEDSLTKQPEEVFDVLEKLGEGSYGSVFKAIHKESGQVVAIKQVPVESDLQEIIKEISIMQQCDSPYVVKYYGSYFKNTDLWIVMEYCGAGSVSDIIRLRNKTLIEDEIATILKSTLKGLEYLHFMRKIHRDIKAGNILLNTEGHAKLADFGVAGQLTDTMAKRNTVIGTPFWMAPEVIQEIGYNCVADIWSLGITSIEMAEGKPPYADIHPMRAIFMIPTNPPPTFRKPELWSDDFTDFVKKCLVKNPEQRATATQLLQHPFIKNAKPVSILRDLITEAMEIKAKRHEEQQRELEEEEENSDEDELDSHTMVKTSVESVGTMRATSTMSEGAQTMIEHNSTMLESDLGTMVINSEDEEEEDGTMKRNATSPQVQRPSFMDYFDKQDFKNKSHENCNQNMHEPFPMSKNVFPDNWKVPQDGDFDFLKNLSLEELQMRLKALDPMMEREIEELAQRYTAKRQPILDAMDAKKRRQQNF
modifications: 35S-methionine label
On to B7, for which the “binding compared to wild-type Mst2” value in data set [2] was ≥ 30%.

B8: Mst2 L466A, full-length, in vitro translated (enzyme, human, UniProt Q13188 1-491, looked up)
chain: MEQPPAPKSKLKKLSEDSLTKQPEEVFDVLEKLGEGSYGSVFKAIHKESGQVVAIKQVPVESDLQEIIKEISIMQQCDSPYVVKYYGSYFKNTDLWIVMEYCGAGSVSDIIRLRNKTLIEDEIATILKSTLKGLEYLHFMRKIHRDIKAGNILLNTEGHAKLADFGVAGQLTDTMAKRNTVIGTPFWMAPEVIQEIGYNCVADIWSLGITSIEMAEGKPPYADIHPMRAIFMIPTNPPPTFRKPELWSDDFTDFVKKCLVKNPEQRATATQLLQHPFIKNAKPVSILRDLITEAMEIKAKRHEEQQRELEEEEENSDEDELDSHTMVKTSVESVGTMRATSTMSEGAQTMIEHNSTMLESDLGTMVINSEDEEEEDGTMKRNATSPQVQRPSFMDYFDKQDFKNKSHENCNQNMHEPFPMSKNVFPDNWKVPQDGDFDFLKNLSLEELQMRLKALDPMMEREIEEARQRYTAKRQPILDAMDAKKRRQQNF
modifications: 35S-methionine label
Turning to B8, the “binding compared to wild-type Mst2” value in data set [2] is ≥ 30%.

B9: linker-deletion Mst2 (Mst2^ΔL, residues 9-313 and 428-491) (enzyme, human, UniProt Q13188 9-313, looked up)
chain: SKLKKLSEDSLTKQPEEVFDVLEKLGEGSYGSVFKAIHKESGQVVAIKQVPVESDLQEIIKEISIMQQCDSPYVVKYYGSYFKNTDLWIVMEYCGAGSVSDIIRLRNKTLIEDEIATILKSTLKGLEYLHFMRKIHRDIKAGNILLNTEGHAKLADFGVAGQLTDTMAKRNTVIGTPFWMAPEVIQEIGYNCVADIWSLGITSIEMAEGKPPYADIHPMRAIFMIPTNPPPTFRKPELWSDDFTDFVKKCLVKNPEQRATATQLLQHPFIKNAKPVSILRDLITEAMEIKAKRHEEQQRELEEEENWKVPQDGDFDFLKNLSLEELQMRLKALDPMMEREIEELRQRYTAKRQPILDAMDAKKRRQQNF
In the case of B9, the binding result in data set [3] is “binds”.

B10: full-length Mst2 (Mst2^FL, residues 9-491) (enzyme, human, UniProt Q13188 9-491, looked up)
chain: SKLKKLSEDSLTKQPEEVFDVLEKLGEGSYGSVFKAIHKESGQVVAIKQVPVESDLQEIIKEISIMQQCDSPYVVKYYGSYFKNTDLWIVMEYCGAGSVSDIIRLRNKTLIEDEIATILKSTLKGLEYLHFMRKIHRDIKAGNILLNTEGHAKLADFGVAGQLTDTMAKRNTVIGTPFWMAPEVIQEIGYNCVADIWSLGITSIEMAEGKPPYADIHPMRAIFMIPTNPPPTFRKPELWSDDFTDFVKKCLVKNPEQRATATQLLQHPFIKNAKPVSILRDLITEAMEIKAKRHEEQQRELEEEEENSDEDELDSHTMVKTSVESVGTMRATSTMSEGAQTMIEHNSTMLESDLGTMVINSEDEEEEDGTMKRNATSPQVQRPSFMDYFDKQDFKNKSHENCNQNMHEPFPMSKNVFPDNWKVPQDGDFDFLKNLSLEELQMRLKALDPMMEREIEELRQRYTAKRQPILDAMDAKKRRQQNF
modifications: phosphorylated at the activation loop (T180) as purified from bacteria
As to B10, the “stoichiometry N” value in data set [4] worked out at 2.
